# Data as given in the Human Domainome abundance scans (Beltran et al. 2025).
# ± gives the uncertainty stated by the source.
# B1: COUP transcription factor 1, residues 83 to 159; numbered along this chain, P10589 (parent)
# chain: HIECVVCGDKSSGKHYGQFTCEGCKSFFKRSVRRNLTYTCRANRNCPIDQHHRNQCQYCRLKKCLKVGMRREAVQRG
# Variants of: B1
# Experiment: abundance fitness (aPCA) (normalised: wild type 0, dead -1); higher = more abundant; growth selection in yeast, the domain comes from the species named
# Details: Homo sapiens
row,Variant,abundance fitness
1,Q50C,-0.078 ± 0.071
2,Q50D,0.03 ± 0.071
3,Y58G,-0.18 ± 0.034
4,Y58P,-0.587 ± 0.08
5,C24K,-0.697 ± 0.12
6,C24D,-0.335 ± 0.088
7,G68H,-0.775 ± 0.18
8,G68F,-0.609 ± 0.12
9,G68I,-0.494 ± 0.1
10,G68A,-0.729 ± 0.069
11,G68N,-0.211 ± 0.085
12,N35C,0.538 ± 0.32
13,N35P,-0.402 ± 0.2
14,N35R,-0.196 ± 0.087
15,N35T,-0.346 ± 0.15
16,H1A,-0.078 ± 0.21
17,K29F,-0.147 ± 0.21
18,K29M,-0.055 ± 0.081
19,C56N,-0.373 ± 0.21
20,C56M,-0.636 ± 0.17
21,K63Q,-0.139 ± 0.047
22,K63G,-0.526 ± 0.05
23,N54Q,-0.091 ± 0.057
24,N54E,0.075 ± 0.053

row,Variant,abundance fitness
1,C7F,-0.942 ± 0.38
2,C7P,-1.17 ± 0.3
3,C7K,-0.509 ± 0.12
4,H51R,-0.16 ± 0.039
5,T37Q,-0.104 ± 0.078
6,S26Q,0.247 ± 0.08
7,S26G,0.238 ± 0.056
8,S26R,-0.019 ± 0.074
9,R60Q,0.197 ± 0.045
10,R60L,0.205 ± 0.034
11,R60D,-0.535 ± 0.11
12,F27A,-0.812 ± 0.11
13,F27Y,-0.61 ± 0.35
14,I2G,-0.927 ± 0.17
15,I2W,-0.502 ± 0.17
16,R33G,-0.029 ± 0.044
17,R33C,-0.698 ± 0.26
18,S11V,-0.399 ± 0.053
19,V5K,0.31 ± 0.11
20,H15R,-0.364 ± 0.14
21,H15D,-0.226 ± 0.24
22,H15P,0.125 ± 0.16
23,Q18L,0.01 ± 0.065
24,Q18W,-0.459 ± 0.097

row,Variant,abundance fitness
1,Q18F,0.151 ± 0.21
2,Q18Y,-0.389 ± 0.26
3,Q75W,-0.119 ± 0.044
4,Q75M,-0.114 ± 0.052
5,Q75A,0.125 ± 0.036
6,S12Y,-0.489 ± 0.11
7,S12T,0.165 ± 0.047
8,S12I,-0.027 ± 0.068
9,S12K,-0.194 ± 0.074
10,S12E,0.1 ± 0.06
11,C4W,-0.965 ± 0.28
12,E3M,-0.07 ± 0.084
13,E3D,0.006 ± 0.063
14,E3H,-0.15 ± 0.17
15,E3V,-0.536 ± 0.057
16,E3A,-0.01 ± 0.044
17,G77H,-0.004 ± 0.13
18,R76S,-0.048 ± 0.046
19,R76A,-0.13 ± 0.045
20,R76Q,0.083 ± 0.055
21,A73V,-0.052 ± 0.037
22,K25G,0.064 ± 0.034
23,N43A,0.152 ± 0.06
24,N43L,-0.054 ± 0.068

row,Variant,abundance fitness
1,N43G,0.051 ± 0.05
2,N43V,0.128 ± 0.071
3,D9P,-0.863 ± 0.24
4,D9C,-0.625 ± 0.46
5,D9K,-0.083 ± 0.16
6,D9M,0.065 ± 0.081
7,D9Q,0.104 ± 0.12
8,D9V,-0.304 ± 0.072
9,D9G,-0.057 ± 0.049
10,R34P,-0.308 ± 0.2
11,R34T,-0.295 ± 0.15
12,R34C,-0.759 ± 0.34
13,R30H,-0.359 ± 0.49
14,K10Q,0.022 ± 0.074
15,K10L,-0.313 ± 0.056
16,K10A,-0.332 ± 0.06
17,R53A,0.022 ± 0.059
18,G17T,-0.319 ± 0.16
19,G17K,-0.452 ± 0.17
20,G17E,-0.156 ± 0.075
21,G17A,-0.358 ± 0.071
22,V67F,-0.115 ± 0.067
23,K62L,-0.015 ± 0.038
24,K62D,0.053 ± 0.064

row,Variant,abundance fitness
1,C21D,-1.03 ± 0.26
2,Y16W,0.132 ± 0.068
3,Y16S,-0.047 ± 0.07
4,Y16M,-0.154 ± 0.11
5,Y38V,-0.257 ± 0.081
6,C64G,-0.669 ± 0.049
7,K66F,-0.013 ± 0.066
8,K66Q,0.055 ± 0.052
9,I48F,-0.11 ± 0.087
10,I48L,-0.147 ± 0.046
11,G8M,-0.078 ± 0.12
12,G8A,0.016 ± 0.061
13,G8K,0.165 ± 0.15
14,M69A,-0.943 ± 0.094
15,V74K,-0.264 ± 0.059
16,V74M,-0.185 ± 0.055
17,V74W,-0.3 ± 0.057
18,V74T,-0.112 ± 0.053
19,V74L,-0.224 ± 0.04
20,S31T,-0.027 ± 0.1
21,S31L,-0.571 ± 0.11
22,C40I,-0.496 ± 0.32
23,C40Q,-0.848 ± 0.17
24,C40T,-0.503 ± 0.12

row,Variant,abundance fitness
1,R71L,-0.039 ± 0.038
2,R71D,0.017 ± 0.056
3,F19D,-0.052 ± 0.12
4,F19T,-0.094 ± 0.11
5,F28L,-0.754 ± 0.14
6,F28Y,-0.42 ± 0.19
7,F28D,-0.991 ± 0.33
8,F28C,-0.757 ± 0.21
9,F28G,-1.05 ± 0.1
10,L61I,-0.163 ± 0.071
11,L61V,-0.555 ± 0.05
12,C46R,-0.602 ± 0.072
13,C46W,-0.779 ± 0.11
14,C46L,-0.492 ± 0.078
15,Q55N,-0.083 ± 0.075
16,Q55A,-0.02 ± 0.042
17,H52Q,0.095 ± 0.047
18,H52S,-0.102 ± 0.043
19,H52Y,-0.225 ± 0.067
20,R44K,-0.071 ± 0.064
21,R44E,0.082 ± 0.041
22,V6T,-0.743 ± 0.15
23,C59S,-0.853 ± 0.1
24,C59P,-0.541 ± 0.094

row,Variant,abundance fitness
1,C59F,-0.978 ± 0.42
2,P47S,-0.172 ± 0.063
3,P47K,-0.035 ± 0.079
4,P47H,-0.296 ± 0.12
5,K14N,0.019 ± 0.39
6,K14R,-0.217 ± 0.12
7,K14Y,-0.068 ± 0.5
8,K14S,0.174 ± 0.14
9,K14E,0.417 ± 0.11
10,G23T,-0.009 ± 0.21
11,N45H,-0.182 ± 0.31
12,L36A,-0.064 ± 0.06
13,L36K,0.126 ± 0.11
14,L36H,0.095 ± 0.38
15,A42N,-0.45 ± 0.4
16,A42S,0.047 ± 0.084
17,A42T,-0.256 ± 0.15
18,G13S,-0.193 ± 0.049
19,V32M,0.072 ± 0.074
20,V32A,-0.151 ± 0.04
21,R70M,0.173 ± 0.095
22,R70T,0.023 ± 0.048
23,R70K,0.153 ± 0.05
